# Measurements taken from US20210340238A1, “TGFß1 INHIBITORS AND USE THEREOF” (Scholar Rock, Inc., priority 2018, published 2021).
# Entries after “also recorded” stand apart in the source; their conditions may differ.
# Experiments:
# [1] = target: Matrix-associated proTGFβ1; test: Octet binding, ECM average of hLTBP1 and hLTBP3 complexes; parameters: species or system human; conditions: average KD of (B) and (C), read-out: (D) ECM AVRG
# Text: Column (A) of the table provides monoclonal antibodies with discrete amino acid sequences. […] Columns (B), (C), (E) and (F) provide affinities of each of the listed antibodies, measured in KD, towards the antigen complex as indicated, respectively. […] Average KD values calculated from (B) and (C) are shown in the corresponding column (D), which collectively represents affinities of the antibodies to ECM- or matrix-associated proTGFβ1 complexes. Similarly, Average KD values calculated from (E) and (F) are shown in the corresponding column (G), which collectively represents affinities of the antibodies to cell-surface or cell-associated proTGF complexes. Finally, relative ratios between the average KD values from columns (D) and (G) are expressed as fold bias” in column (H). Thus, the greater the numerical of column (H) is, the greater bias exists for the particular antibody, when comparing binding preferences of the antibody for matrix-associated complexes to cell-surface complexes. This is one way of quantitatively representing and comparing inherent bias of antibodies to their target complexes. Such analyses may be useful in guiding the selection process for a candidate antibody for particular therapeutic use.
# [2] = target: Matrix-associated proTGFβ1; test: MSD-SET binding, ECM average of hLTBP1 and hLTBP3 complexes; parameters: species or system human; conditions: average KD of (B) and (C), read-out: (D) ECM AVRG
# Text: (§1) Column (A) of the table provides monoclonal antibodies with discrete amino acid sequences. […] Columns (B), (C), (E) and (F) provide affinities of each of the listed antibodies, measured in KD, towards the antigen complex as indicated, respectively. […] Similarly, Average KD values calculated from (E) and (F) are shown in the corresponding column (G), which collectively represents affinities of the antibodies to cell-surface or cell-associated proTGF complexes. Finally, relative ratios between the average KD values from columns (D) and (G) are expressed as fold bias” in column (H). Thus, the greater the numerical of column (H) is, the greater bias exists for the particular antibody, when comparing binding preferences of the antibody for matrix-associated complexes to cell-surface complexes. This is one way of quantitatively representing and comparing inherent bias of antibodies to their target complexes. Such analyses may be useful in guiding the selection process for a candidate antibody for particular therapeutic use. Select antibodies of the present disclosure, as measured by MSD-SET, show context-bias (i.e., greater than five-fold bias) or unbias (i.e., less than 5-fold bias) toward matrix-associated complexes over cell-associated complexes. […] Without being bound by a particular theory, the differences in the kinetics of the assays and/or differences in the nature of recombinant proteins may account for the noticeable differences seen in Ab19 binding to hGARP complexes observed in the above Octet assay (see Table 6) compared to the below MSD-SET assay (see Table 7 below). For example, the Octet assay measures kinetic on and off rates, while the MSD-SET assay measures binding at equilibrium. In addition, the recombinant antibodies used in the Octet assay were expressed as IgG1 antibodies in yeast, while the antibodies used in the MSD assay were expressed as IgG4 antibodies in mammalian cells.
# Cell-associated proTGFβ1 = test: MSD-SET binding, cell average of hGARP and hLRRC33 complexes; parameters: species or system human; conditions: average KD of (E) and (F), read-out: (G) Cell AVRG
# Text: as §1
# [3] = test system: TGFβ signaling (Smad2/3 phosphorylation; Col1a1, Col3a1, Fn1); test: Col4a3−/− genetic model of Alport syndrome (kidney pSmad2/3 ELISA, qPCR); assay type: in vivo, mouse
# Text: The murine Col4a3−/− model is an established genetic model of autosomal recessive Alport syndrome. Alport mice lack a functional collagen 4A3 gene (Col4A3−/−) and therefore cannot form normal type IV collagen trimers, which require α3, α4, and α5 chains. Col4a3−/− mice develop fibrosis in the kidney consistent with renal fibrosis in human patients, including interstitial fibrosis and tubular atrophy, and Col4a3−/− mice develop end-stage renal disease (ESRD) between 10 and 30 week of age, depending on the genetic background of the mouse. The structural and functional manifestation of renal pathology in Col4a3−/− mice, combined with the progression to ESRD make Col4a3−/− mice an ideal model to understand kidney fibrosis. Previous reports point to the importance of the TGFβ signaling pathway in this process, and treatment with either […], a known activator of TGFβ, or with a TGFβ ligand trap has been reported to prevent renal fibrosis and inflammation in Alport mice (Hahm et al. (2007) The American Journal of Pathology, 170(1): 110-125).
# F1 offspring from Col4a3+/− males on a 129/Sv genetic background crossed to Col4a3+/− females on a C57/Bl6 genetic were employed for the study.
# It is well documented that TGFβ receptor activation leads to a downstream signaling cascade of intra cellular events, including phosphorylation of Smad2/3. […] FIG. 7A provides a graph showing relative ratios of phosphorylated vs. total (phosphorylated and unphospohrylated) Smad2/3.
# An IgG was used as negative control in both heterozygous (Col4a3+/−; Het) and knock out (Col4a3−/−; KO) mice. Following six weeks of antibody treatment (12 weeks after birth), animals were sacrificed, and the kidneys were collected for analyses.
# To assess the functional effect of TGFβ inhibition, a third study was carried out in the Col4a3−/− model of kidney fibrosis. […] Treatment effect was assessed by gene expression, which was evaluated by quantitative polymerase chain reaction (qPCR) using cDNA generated from the kidneys of mice in this study.
# [4] = 4-week rat toxicology study (weekly dosing); assay type: in vivo
# Text: Animals were sacrificed and necropsies performed.
# MBT2 tumors = test: MBT2 syngeneic bladder cancer mouse model, combination with anti-PD-1; assay type: in vivo; conditions: Ab3 10 and 30 mg/kg, Ab2 3 and 10 mg/kg, in combination with anti-PD-1
# Text: This is a very aggressive and fast-growing tumor model, and is very difficult to overcome tumor progression with drug treatment.
# Treatment with isotype control was used as a control group (data not shown).
# Percent tumor growth delay (% TGD) is defined as the increase in the median time to endpoint in a treatment group compared to the untreated control, expressed as a percentage of the median time to endpoint (TTE) of the control:
# T=median TTE for treatment
# CloudmanS91 tumors = test: CloudmanS91 melanoma mouse model, combination with anti-PD-1; assay type: in vivo; conditions: 10 mg/kg and 30 mg/kg i.p. weekly, in combination with anti-PD1
# Protocol: Clone M3 [Cloudman S91 melanoma] (ATCC® CCL-53.1™) cells were obtained from the American Type Culture Collection (ATCC), and were maintained at CR Discovery Services as exponentially growing suspension cultures in Kaighn's modified Ham's F12 Medium supplemented with 2.5% fetal bovine serum, 15% horse serum, 2 mM glutamine, 100 units/mL penicillin G sodium, 100 μg/mL streptomycin sulfate and 25 μg/mL gentamicin. The tumor cells were grown in tissue culture flasks in a humidified incubator at 37° C., in an atmosphere of 5% CO2 and 95% air.
# An untreated control was used, data not shown.
molecule,measurement,setting,value
"Ab2: isoform-selective inhibitor of TGFβ1 activation; VH SEQ ID NO: 13, VL SEQ ID NO: 15; human IgG4 (antibody, V domains shown, human IgG4 constant regions) VH: EVQLLESGGGLVQPGGSLRLSCAASGFTFADYAMTWVRQAPGKGLEWVSAISGSGAATYFADSVKGRFTISRDNSKNTLYLQMNSLRAEDTAVYYCARVSSGHWDFDYWGQGTLVTVSS VL: DIQLTQSPSSLSASVGDRVTITCRASQSISSYLNWYQQKPGKAPKLLIYAASNLQSGVPSRFSGSGSGTDFTLTISSLQPEDFATYYCQQTYTVPLTFGGGTKVEIK",Kd,[1],0.157 nM
same,Kd,[2],0.266 nM
same,Kd,Cell-associated proTGFβ1,2.3 nM
same,"Expression of Col1a1, Col3a1 and Fn1 in kidney (qPCR)","[3]; 5 mg/kg i.p. twice a week from week 6 to week 14, Col4a3−/− mice","significantly reduced the expression of Col1a1 and Col3a1; also recorded: Expression of Fn1 showed a similar trend in Ab2-treated Col4a3−/− mice, though this effect was not statistically significant"
same,Relative ratio of phosphorylated vs. total Smad2/3 in whole kidney lysates,"[3]; i.p. twice weekly for six weeks from week 6, Ab3 5 or 1.5 mg/kg, Ab2 1.5 mg/kg, vs IgG treated Col4a3−/− mice",significant reduction in relative phosphorylation of Smad2/3
same,Relative ratio of phosphorylated vs. total Smad2/3 in whole kidney lysates,"[3]; single 10 mg/kg i.p. dose 48 hours before sacrifice, 9 week old Col4a3−/− mice",sufficient to significantly inhibit pSmad2/3 signaling
same,Test article-related toxicity,"[4]; once weekly for 4 weeks up to 100 mg/kg, Fischer 344 or SD rats",free of observable toxicities associated with pan-inhibition of TGFβ; also recorded: no observable test article-related toxcity in either rat strain; also recorded: no toxic effects over background
same,MTD,"[4]; rats, suggested from NOAEL of four-week toxicology study",> 100 mg/kg
same,NOAEL,"[4]; rats, weekly dose for 4 weeks, highest dose tested",100 mg/kg
same,Tumor growth compared to PD-1 alone,MBT2 tumors,delayed tumor growth
same,Tumor growth (median tumor progression),CloudmanS91 tumors,delayed tumor growth
